The labels stand for the following.
B1: CHT1 (endocytosis-resistant CHT1-LV/AA, called WT CHT1) (Homo sapiens; L531A/S263A/V532A) (protein)
chain: MAFHVEGLIAIIVFYLLILLVGIWAAWRTKNSGSAEERSEAIIVGGRDIGLLVGGFTMTATWVGGGYINGTAEAVYVPGYGLAWAQAPIGYSLSLILGGLFFAKPMRSKGYVTMLDPFQQIYGKRMGGLLFIPALMGEMFWAAAIFSALGATISVIIDVDMHISVIISALIATLYTLVGGLYSVAYTDVVQLFCIFVGLWISVPFALSHPAVADIGFTAVHAKYQKPWLGTVDSSEVYSWLDSFLLLMLGGIPWQAYFQRVLASSSATYAQVLSFLAAFGCLVMAIPAILIGAIGASTDWNQTAYGLPDPKTTEEADMILPIVLQYLCPVYISFFGLGAVSAAVMSSADSSILSASSMFARNIYQLSFRQNASDKEIVWVMRITVFVFGASATAMALLTKTVYGLWYLSSDLVYIVIFPQLLCVLFVKGTNTYGAVAGYVSGLFLRITGGEPYLYLQPLIFYPGYYPDDNGIYNQKFPFKTLAMVTSFLTNICISYLAKYLFESGTLPPKLDVFDAVVARHSEENMDKTIAAKNENIKLDELALVKPRQSMTLSSTFTNKEAFLDVDSSPEGSGTEDNLQ
notes: full length; transient transfection, HeLa cells
B2: CHT1 (endocytosis-resistant CHT1-LV/AA, called WT CHT1) (Homo sapiens; L531A/Q259A/V532A) (protein)
chain: B1 chain with Q259A, A263S
notes: as for B1
B3: CHT1 (endocytosis-resistant CHT1-LV/AA, called WT CHT1) (Homo sapiens; L531A/V532A/W406F) (protein)
chain: B1 chain with A263S, W406F
notes: as for B1
B4: CHT1 (endocytosis-resistant CHT1-LV/AA, called WT CHT1) (Homo sapiens; L531A/V532A) (protein)
chain: B1 chain with A263S
notes: as for B1
B5: CHT1 (endocytosis-resistant CHT1-LV/AA, called WT CHT1) (Homo sapiens; L531A/V532A/W62F) (protein)
chain: B1 chain with W62F, A263S
notes: as for B1
B6: CHT1 (endocytosis-resistant CHT1-LV/AA, called WT CHT1) (Homo sapiens; L531A/V532A/Y91F) (protein)
chain: B1 chain with Y91F, A263S
notes: as for B1
B7: CHT1 (endocytosis-resistant CHT1-LV/AA, called WT CHT1) (Homo sapiens; L531A/V532A/W141F) (protein)
chain: B1 chain with W141F, A263S
notes: as for B1

Positions count from the first letter of the chain named. In names and notes the source's numbering stands.

In the first data set the target is T1, sfCHT (Salimicrobium flavidum, UniProt A0A1N7IZC0).
T1 construct: gene SAMN05421687_10333; full length, C-terminal 3C-His10 tag (cut by 3C for cryo-EM), E. coli BL21; monomer in DDM or E. coli polar lipid proteoliposomes; residues 22-69 and 81-543 built
T1 sequence (A0A1N7IZC0 entry or part of it): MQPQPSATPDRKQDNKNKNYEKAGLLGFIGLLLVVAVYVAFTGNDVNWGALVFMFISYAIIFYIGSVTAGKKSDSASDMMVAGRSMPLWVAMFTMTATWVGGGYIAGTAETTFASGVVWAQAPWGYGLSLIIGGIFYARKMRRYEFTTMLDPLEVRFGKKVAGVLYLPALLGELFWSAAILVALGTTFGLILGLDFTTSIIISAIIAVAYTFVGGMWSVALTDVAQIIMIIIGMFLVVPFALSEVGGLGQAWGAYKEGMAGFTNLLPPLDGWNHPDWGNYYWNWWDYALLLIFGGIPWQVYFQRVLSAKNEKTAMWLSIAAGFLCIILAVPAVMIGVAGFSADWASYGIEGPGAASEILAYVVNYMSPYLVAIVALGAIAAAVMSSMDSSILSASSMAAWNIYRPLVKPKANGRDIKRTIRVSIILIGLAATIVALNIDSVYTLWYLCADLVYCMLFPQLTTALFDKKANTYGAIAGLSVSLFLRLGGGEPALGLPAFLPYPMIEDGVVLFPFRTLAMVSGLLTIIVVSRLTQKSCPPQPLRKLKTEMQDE
As to the kind of experiment: inhibition of [3H]-choline uptake into proteoliposomes. Particulars: 1 μM HC-3, 1 μM choline, 137 mM NaCl, pH 7.4, room temperature. It counts as biochemical.
Consider `C[N+]1(C)CCOC(O)(c2ccc(-c3ccc(C4(O)C[N+](C)(C)CCO4)cc3)cc2)C1` (stereo not drawn) [HC-3], for which the “uptake at 1 μM HC-3” value is “selectively suppressed Na^+-dependent uptake but had no effect in Na^+-free conditions”.

Substrate in a further data set: C[N+](C)(C)CCO
As to the kind of experiment: [3H]-choline uptake, saturation kinetics in transfected HeLa cells. It counts as cell-based, Homo sapiens. As to conditions: pH 7.4, 137 mM NaCl, room temperature, 2 min, LV/AA background, labelled compound. An excerpt:
[3H]-choline uptake, saturation kinetics in transfected HeLa cells on CHT1 (endocytosis-resistant CHT1-LV/AA, called WT CHT1)
What is called Km is the substrate concentration at which the rate is half of its maximum. For orientation: Vmax means the rate approached at saturating substrate. Take B1: the Km was 14.60 ± 2.03 µM and the Vmax worked out at 0.000659 µmol/min/mg.
The like results for B2 were, in that order, 10.08 ± 1.50 µM and 0.000387 µmol/min/mg.
On to B3, for which the Km stood at 357.60 ± 99.13 µM and the Vmax was 0.000543 µmol/min/mg.
The like results for B4 were, in that order, 12.17 ± 1.06 µM and 0.00118 µmol/min/mg.
The like results for B5 were, in that order, 401.72 ± 32.24 µM and 0.000627 µmol/min/mg.
The corresponding values for B6 are 22.23 ± 1.91 µM and 0.000353 µmol/min/mg.
Take B7: the Km was found to be 270.81 ± 14.66 µM and the Vmax was 0.000588 µmol/min/mg.

(Values after article PMC13220886 (Science Advances, 2026).)
